Test results reported in article PMC5651818, “VPS18 recruits VPS41 to the human HOPS complex via a RING–RING interaction” (Biochemical Journal, 2017).

Biological target: T1, His-tagged VPS18 RING domain (residues 842–973) (human, UniProt Q9P253 842-973)
T1 construct: Vector pOPTnH; monomeric by SEC-MALS; also called VPS18 RING H6; VPS18H6; source: E. coli Rosetta2(DE3) pLysS, purified (Ni-NTA, SEC); not shown: LysHis6, C-terminal, kept
T1 sequence (looked up): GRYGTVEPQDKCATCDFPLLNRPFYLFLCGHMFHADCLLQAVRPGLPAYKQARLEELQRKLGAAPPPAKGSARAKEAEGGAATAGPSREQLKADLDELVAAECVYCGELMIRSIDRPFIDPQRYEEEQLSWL
Test: SEC-MALS; Superdex 75 10/300, room temperature, 20 mM Tris (pH 7.5), 150 mM NaCl, 0.5 mM EDTA; complex formed from 0.48 mg/ml VPS41 RING and 0.68 mg/ml VPS18 RING H6 on ice for 15 min
Details: both partners purified

B1: tag-free VPS41 RING domain (residues 778–854) (domain or fragment, human, UniProt P49754 778-854, looked up)
chain: TQMKGVLVDEENICESCLSPILPSDAAKPFSVVVFHCRHMFHKECLPMPSMNSAAQFCNICSAKNRGPGSAILEMKK
notes: monomeric by SEC-MALS; also called untagged VPS41 RING; not shown: GST, N-terminal, cleaved
- stoichiometry N: 1
